In patent publication US20260242735A1 (UNIVERSIT T BASEL, published 2026):

Tests used:
Experiment in all cases: flow cytometry, alanine scan
[1] = biological target: human CD33 T356A (human, UniProt P20138 18-364)
Description: (§1) An alanine scan on human CD33 was performed to the determine the residues on CD33 that are involved in binding to the antibodies investigated. […] Briefly, a mutation library of CD33 was created by high-throughput, site-directed mutagenesis. Each residue was individually mutated to alanine, with alanine codons mutated to serine. The mutant library was arrayed in 384-well microplates and transiently transfected into HEK293-T. Following transfection, cells were incubated with the indicated antibodies (IgG or Fab) at concentrations pre-determined using an independent immunofluorescence titration curve on wild type CD33. […] Binding of each antibody to each mutant clone was determined in duplicates. For each point, background fluorescence was subtracted from the raw data, which were then normalized to antibody reactivity with wild type CD33.
(§2) Critical residues for antibody binding (outlined in dark grey) were residues whose mutations led to a binding of the test Abs of less than 20%. Additional secondary residues (outlined in light grey) were identified that led to a binding of the test Abs of between 20 and 40% as compared to the wild type CD33.

[2] = biological target: human CD33 D353A (human, UniProt P20138 18-364)
Description: as §1, §2

[3] = biological target: human CD33 Y358A (human, UniProt P20138 18-364)
Description: as §1, §2

[4] = biological target: human CD33 E321A (human, UniProt P20138 18-364)
Description: as §1, §2

[5] = biological target: human CD33 T331A (human, UniProt P20138 18-364)
Description: as §1, §2

[6] = biological target: human CD33 K352A (human, UniProt P20138 18-364)
Description: as §1, §2

[7] = biological target: human CD33 E360A (human, UniProt P20138 18-364)
Description: as §1, §2

[8] = biological target: human CD33 E336A (human, UniProt P20138 18-364)
Description: as §1, §2

[9] = biological target: human CD33 A329S (human, UniProt P20138 18-364)
Description: as §1, §2

[10] = biological target: human CD33 Q364A (human, UniProt P20138 18-363)
Description: as §1, §2

[11] = biological target: human CD33 M334A (human, UniProt P20138 18-364)
Description: as §1, §2

[12] = biological target: human CD33 M348A (human, UniProt P20138 18-364)
Description: as §1, §2

[13] = biological target: human CD33 L343A (human, UniProt P20138 18-364)
Description: as §1, §2

[14] = biological target: human CD33 N349A (human, UniProt P20138 18-364)
Description: as §1, §2

[15] = biological target: human CD33 S323A (human, UniProt P20138 18-364)
Description: as §1, §2

[16] = biological target: human CD33 N344A (human, UniProt P20138 18-364)
Description: as §1, §2

[17] = biological target: human CD33 S324A (human, UniProt P20138 18-364)
Description: as §1, §2

[18] = biological target: human CD33 T322A (human, UniProt P20138 18-364)
Description: as §1, §2

[19] = biological target: human CD33 E357A (human, UniProt P20138 18-364)
Description: as §1, §2

[20] = biological target: human CD33 E337A (human, UniProt P20138 18-364)
Description: as §1, §2

[21] = biological target: human CD33 L338A (human, UniProt P20138 18-364)
Description: as §1, §2

[22] = biological target: human CD33 A341S (human, UniProt P20138 18-364)
Description: as §1, §2

[23] = biological target: human CD33 V332A (human, UniProt P20138 18-364)
Description: as §1, §2

[24] = biological target: human CD33 F345A (human, UniProt P20138 18-364)
Description: as §1, §2

[25] = biological target: human CD33 H346A (human, UniProt P20138 18-364)
Description: as §1, §2

[26] = biological target: human CD33 S351A (human, UniProt P20138 18-364)
Description: as §1, §2

[27] = biological target: human CD33 T354A (human, UniProt P20138 18-364)
Description: as §1, §2

[28] = biological target: human CD33 C325A (human, UniProt P20138 18-364)
Description: as §1, §2

[29] = biological target: human CD33 P319A (human, UniProt P20138 18-364)
Description: as §1, §2

[30] = biological target: human CD33 G318A (human, UniProt P20138 18-364)
Description: as §1, §2

[31] = biological target: human CD33 S359A (human, UniProt P20138 18-364)
Description: as §1, §2

[32] = biological target: human CD33 D335A (human, UniProt P20138 18-364)
Description: as §1, §2

[33] = biological target: human CD33 A328S (human, UniProt P20138 18-364)
Description: as §1, §2

[34] = biological target: human CD33 S326A (human, UniProt P20138 18-364)
Description: as §1, §2

[35] = biological target: human CD33 P330A (human, UniProt P20138 18-364)
Description: as §1, §2

[36] = biological target: human CD33 T363A (human, UniProt P20138 18-364)
Description: as §1, §2

[37] = biological target: human CD33 Y340A (human, UniProt P20138 18-364)
Description: as §1, §2

[38] = biological target: human CD33 G327A (human, UniProt P20138 18-364)
Description: as §1, §2

[39] = biological target: human CD33 R362A (human, UniProt P20138 18-364)
Description: as §1, §2

[40] = biological target: human CD33 T320A (human, UniProt P20138 18-364)
Description: as §1, §2

[41] = biological target: human CD33 E333A (human, UniProt P20138 18-364)
Description: as §1, §2

[42] = biological target: human CD33 P350A (human, UniProt P20138 18-364)
Description: as §1, §2

[43] = biological target: human CD33 V361A (human, UniProt P20138 18-364)
Description: as §1, §2

[44] = biological target: human CD33 G347A (human, UniProt P20138 18-364)
Description: as §1, §2

[45] = biological target: human CD33 S342A (human, UniProt P20138 18-364)
Description: as §1, §2

[46] = biological target: human CD33 H339A (human, UniProt P20138 18-364)
Description: as §1, §2

[47] = biological target: human CD33 S355A (human, UniProt P20138 18-364)
Chain of human CD33 S355A (P20138 18-364 S355A limits assumed): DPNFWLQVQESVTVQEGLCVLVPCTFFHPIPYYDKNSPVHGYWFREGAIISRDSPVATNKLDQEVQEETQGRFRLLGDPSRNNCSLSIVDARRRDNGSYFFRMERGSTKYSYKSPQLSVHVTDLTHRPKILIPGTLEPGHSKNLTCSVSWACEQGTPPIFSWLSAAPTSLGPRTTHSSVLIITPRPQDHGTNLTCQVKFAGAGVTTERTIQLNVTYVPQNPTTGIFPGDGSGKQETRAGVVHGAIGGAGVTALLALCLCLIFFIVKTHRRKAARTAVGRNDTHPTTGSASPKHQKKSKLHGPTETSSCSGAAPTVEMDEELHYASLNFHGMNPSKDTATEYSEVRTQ
Description: as §1, §2

Chain of human CD33 A341S (P20138 18-364 A341S limits assumed): as the sequence (P20138 18-364 S355A limits assumed) above, with A324S, A338S counted along it
Chain of human CD33 T356A (P20138 18-364 T356A limits assumed): as the sequence (P20138 18-364 S355A limits assumed) above, with A338S, T339A counted along it
Chain of human CD33 F345A (P20138 18-364 F345A limits assumed): as the sequence (P20138 18-364 S355A limits assumed) above, with F328A, A338S counted along it
Chain of human CD33 E360A (P20138 18-364 E360A limits assumed): as the sequence (P20138 18-364 S355A limits assumed) above, with A338S, E343A counted along it
Chain of human CD33 T354A (P20138 18-364 T354A limits assumed): as the sequence (P20138 18-364 S355A limits assumed) above, with T337A, A338S counted along it
Chain of human CD33 D353A (P20138 18-364 D353A limits assumed): as the sequence (P20138 18-364 S355A limits assumed) above, with D336A, A338S counted along it
Chain of human CD33 L343A (P20138 18-364 L343A limits assumed): as the sequence (P20138 18-364 S355A limits assumed) above, with L326A, A338S counted along it
Chain of human CD33 G347A (P20138 18-364 G347A limits assumed): as the sequence (P20138 18-364 S355A limits assumed) above, with G330A, A338S counted along it
Chain of human CD33 H346A (P20138 18-364 H346A limits assumed): as the sequence (P20138 18-364 S355A limits assumed) above, with H329A, A338S counted along it
Chain of human CD33 N344A (P20138 18-364 N344A limits assumed): as the sequence (P20138 18-364 S355A limits assumed) above, with N327A, A338S counted along it
Chain of human CD33 P350A (P20138 18-364 P350A limits assumed): as the sequence (P20138 18-364 S355A limits assumed) above, with P333A, A338S counted along it
Chain of human CD33 E333A (P20138 18-364 E333A limits assumed): as the sequence (P20138 18-364 S355A limits assumed) above, with E316A, A338S counted along it
Chain of human CD33 Q364A (P20138 18-364 Q364A limits assumed): as the sequence (P20138 18-364 S355A limits assumed) above, with A338S, Q347A counted along it

B1: Refmab #4 (antibody, V domains shown)
VH: QVQLVQSGAEVKKPGESVKVSCKASGYTFTNYGMNWVKQAPGQGLEWMGWINTYTGEPTYADKFQGRVTMTTDTSTSTAYMEIRNLGGDDTAVYYCARWSWSDGYYVYFDYWGQGTSVTVSS
VL: DIVMTQSPDSLTVSLGERTTINCKSSQSVLDSSTNKNSLAWYQQKPGQPPKLLLSWASTRESGIPDRFSGSGSGTDFTLTIDSPQPEDSATYYCQQSAHFPITFGQGTRLEIK
notes: The alanine scan used IgG or Fab
With B1 the “Mean % WT Binding” value [1] was 107 % of WT, the “Mean % WT Binding” value [2] was 74.9 % of WT and the “Mean % WT Binding” value [3] was 109 % of WT. The “Mean % WT Binding” value [4] was 120 % of WT, the “Mean % WT Binding” value [5] was 97.9 % of WT and the “Mean % WT Binding” value [6] was 103 % of WT. The “Mean % WT Binding” value [7] was 104 % of WT, the “Mean % WT Binding” value [8] was 109 % of WT and the “Mean % WT Binding” value [9] was 87.3 % of WT. The “Mean % WT Binding” value [10] was 81.5 % of WT, the “Mean % WT Binding” value [11] was 111 % of WT and the “Mean % WT Binding” value [12] was 85 % of WT. For the same binder, the “Mean % WT Binding” value [13] was 116 % of WT, the “Mean % WT Binding” value [14] was 95.5 % of WT and the “Mean % WT Binding” value [15] was 103 % of WT. The “Mean % WT Binding” value [16] was 71.2 % of WT, the “Mean % WT Binding” value [17] was 96.4 % of WT and the “Mean % WT Binding” value [18] was 98.2 % of WT. The “Mean % WT Binding” value [19] was 110 % of WT, the “Mean % WT Binding” value [20] was 106 % of WT and the “Mean % WT Binding” value [21] was 109 % of WT. The “Mean % WT Binding” value [22] was 104 % of WT, the “Mean % WT Binding” value [23] was 93.4 % of WT and the “Mean % WT Binding” value [24] was 109 % of WT. The “Mean % WT Binding” value [25] was 111 % of WT, the “Mean % WT Binding” value [26] was 114 % of WT and the “Mean % WT Binding” value [27] was 106 % of WT. The “Mean % WT Binding” value [28] was 88.6 % of WT, the “Mean % WT Binding” value [29] was 97 % of WT and the “Mean % WT Binding” value [30] was 92.2 % of WT. The “Mean % WT Binding” value [31] was 82.7 % of WT, the “Mean % WT Binding” value [32] was 105 % of WT and the “Mean % WT Binding” value [33] was 75.6 % of WT. For the same binder, the “Mean % WT Binding” value [34] was 65.8 % of WT, the “Mean % WT Binding” value [35] was 97.8 % of WT and the “Mean % WT Binding” value [36] was 124 % of WT. The “Mean % WT Binding” value [37] was 112 % of WT, the “Mean % WT Binding” value [38] was 99.1 % of WT and the “Mean % WT Binding” value [39] was 104 % of WT. The “Mean % WT Binding” value [40] was 109 % of WT, the “Mean % WT Binding” value [41] was 104 % of WT and the “Mean % WT Binding” value [42] was 93.1 % of WT. The “Mean % WT Binding” value [43] was 92.4 % of WT, the “Mean % WT Binding” value [44] was 72.1 % of WT and the “Mean % WT Binding” value [45] was 105 % of WT. For the same binder, the “Mean % WT Binding” value [46] was 82 % of WT and the “Mean % WT Binding” value [47] was 91.5 % of WT.

B2: Refmab #3 (antibody, V domains shown)
VH: QVQLVQSGAEVKKPGSSVKVSCKASGYTFTDYNMHWVRQAPGQGLEWIGYIYPYNGGTGYNQKFKSKATITADESTNTAYMELSSLRSEDTAVYYCARGRPAMDYWGQGTLVTVSS
VL: DIQMTQSPSSLSASVGDRVTITCRASESVDNYGISFMNWFQQKPGKAPKLLIYAASNQGSGVPSRFSGSGSGTDFTLTISSLQPDDFATYYCQQSKEVPWTFGQGTKVEIK
notes: as for B1
B2 was tested, and the “Mean % WT Binding” value [1] was 108 % of WT, the “Mean % WT Binding” value [2] was 98.3 % of WT and the “Mean % WT Binding” value [3] was 140 % of WT. The “Mean % WT Binding” value [4] was 88.4 % of WT, the “Mean % WT Binding” value [5] was 147 % of WT and the “Mean % WT Binding” value [6] was 96.3 % of WT. The “Mean % WT Binding” value [7] was 123 % of WT, the “Mean % WT Binding” value [8] was 103 % of WT and the “Mean % WT Binding” value [9] was 133 % of WT. For the same binder, the “Mean % WT Binding” value [10] was 97.8 % of WT, the “Mean % WT Binding” value [11] was 81.2 % of WT and the “Mean % WT Binding” value [12] was 133 % of WT. For the same binder, the “Mean % WT Binding” value [13] was 77.4 % of WT, the “Mean % WT Binding” value [14] was 121 % of WT and the “Mean % WT Binding” value [15] was 115 % of WT. The “Mean % WT Binding” value [16] was 118 % of WT, the “Mean % WT Binding” value [17] was 109 % of WT and the “Mean % WT Binding” value [18] was 83.5 % of WT. The “Mean % WT Binding” value [19] was 120 % of WT, the “Mean % WT Binding” value [20] was 114 % of WT and the “Mean % WT Binding” value [21] was 89.3 % of WT. The “Mean % WT Binding” value [22] was 138 % of WT, the “Mean % WT Binding” value [23] was 89.8 % of WT and the “Mean % WT Binding” value [24] was 84 % of WT. For the same binder, the “Mean % WT Binding” value [25] was 133 % of WT, the “Mean % WT Binding” value [26] was 91.8 % of WT and the “Mean % WT Binding” value [27] was 89.1 % of WT. The “Mean % WT Binding” value [28] was 91.2 % of WT, the “Mean % WT Binding” value [29] was 76.4 % of WT and the “Mean % WT Binding” value [30] was 117 % of WT. For the same binder, the “Mean % WT Binding” value [31] was 135 % of WT, the “Mean % WT Binding” value [32] was 87.4 % of WT and the “Mean % WT Binding” value [33] was 127 % of WT. The “Mean % WT Binding” value [34] was 129 % of WT, the “Mean % WT Binding” value [35] was 146 % of WT and the “Mean % WT Binding” value [36] was 91.5 % of WT. For the same binder, the “Mean % WT Binding” value [37] was 88 % of WT, the “Mean % WT Binding” value [38] was 132 % of WT and the “Mean % WT Binding” value [39] was 114 % of WT. For the same binder, the “Mean % WT Binding” value [40] was 82.4 % of WT, the “Mean % WT Binding” value [41] was 104 % of WT and the “Mean % WT Binding” value [42] was 90.7 % of WT. For the same binder, the “Mean % WT Binding” value [43] was 97.6 % of WT, the “Mean % WT Binding” value [44] was 118 % of WT and the “Mean % WT Binding” value [45] was 121 % of WT. For the same binder, the “Mean % WT Binding” value [46] was 83.5 % of WT and the “Mean % WT Binding” value [47] was 85.6 % of WT.
